Key:
[1] = biological target: human- or mouse-derived ROR1 antigen (Sino Biological); experiment: ELISA on coated ROR1 antigen (human or mouse not said), OD450
[2] = biological target: human- or mouse-derived ROR1 antigen (Sino Biological); experiment: ELISA on coated ROR1 antigen (Sino Biological), conjugate against parent antibody P015042
[3] = biological target: human- or mouse-derived ROR1 antigen (Sino Biological); experiment: ELISA on coated ROR1 antigen (Sino Biological), conjugate against parent antibody P015004
[4] = biological target: human- or mouse-derived ROR1 antigen (Sino Biological); experiment: ELISA on coated ROR1 antigen (Sino Biological), conjugate against parent antibody P015044

Binder	EC50 (read off the curve) [1] [nM]	Affinity compared to parent antibody (%) [2] [%]	Affinity compared to parent antibody (%) [3] [%]	Affinity compared to parent antibody (%) [4] [%]
P015042 (antibody, V domains shown) VH: EVQLLESGGGLVQPGGSLRLSCAASGFTFSDYAMSWVRQAPGKGLEWVSVISSDGGSIYYADSVKGRFTISRDNSKNTLYLQMNSLRAEDTAVYYCAKDRSRDMEVDFDYWGQGTLVTVSS VL: QSVLTQPPSASGTPGQRVTISCSGSSSNIGSNYVTWYQQLPGTAPKLLIYDSSQRPSGVPDRFSGSKSGTSASLAISGLRSEDEADYYCGTWDYSLSGYVFGGGTKLTVL	0.5			
P015044 (antibody, V domains shown) VH: EVQLLESGGGLVQPGGSLRLSCAASGFTFSNYAMHWVRQAPGKGLEWVSIIYPDDDTRYNPSFRGRFTISRDNSKNTLYLQMNSLRAEDTAVYYCARDLLYAGDYWGQGTLVTVSS VL: QSVLTQPPSASGTPGQRVTISCGGNNIESKAVHWYQQLPGTAPKLLIYANNKRPSGVPDRFSGSKSGTSASLAISGLRSEDEADYYCQSYDSNKVVFGGGTKLTVL	0.8			
P015044-vc-PAB-MMAE (antibody, IgG1, V domains shown, maleimidocaproyl-valine-citrulline-p-aminobenzyloxycarbonyl monomethyl auristatin E on cysteine sulfhydryls of reduced disulfides; positions not given; average 3.0 drugs per antibody) VH: EVQLLESGGGLVQPGGSLRLSCAASGFTFSNYAMHWVRQAPGKGLEWVSIIYPDDDTRYNPSFRGRFTISRDNSKNTLYLQMNSLRAEDTAVYYCARDLLYAGDYWGQGTLVTVSS VL: QSVLTQPPSASGTPGQRVTISCGGNNIESKAVHWYQQLPGTAPKLLIYANNKRPSGVPDRFSGSKSGTSASLAISGLRSEDEADYYCQSYDSNKVVFGGGTKLTVL	2			82.7

Now from value to binder:

EC50 (read off the curve) [1] [nM]	Affinity compared to parent antibody (%) [2] [%]	Affinity compared to parent antibody (%) [3] [%]	Affinity compared to parent antibody (%) [4] [%]	Binder
2	99.3			P015042-vc-PAB-MMAE (antibody, IgG1, V domains shown, maleimidocaproyl-valine-citrulline-p-aminobenzyloxycarbonyl monomethyl auristatin E on cysteine sulfhydryls of reduced disulfides; positions not given; average 3.3 drugs per antibody) VH: EVQLLESGGGLVQPGGSLRLSCAASGFTFSDYAMSWVRQAPGKGLEWVSVISSDGGSIYYADSVKGRFTISRDNSKNTLYLQMNSLRAEDTAVYYCAKDRSRDMEVDFDYWGQGTLVTVSS VL: QSVLTQPPSASGTPGQRVTISCSGSSSNIGSNYVTWYQQLPGTAPKLLIYDSSQRPSGVPDRFSGSKSGTSASLAISGLRSEDEADYYCGTWDYSLSGYVFGGGTKLTVL
0.8				P015004 (antibody, V domains shown) VH: EVQLLESGGGLVQPGGSLRLSCAASGFTFSDYAMAWVRQAPGKGLEWVSIIYPGDSETIYSPSFEGRFTISRDNSKNTLYLQMNSLRAEDTAVYYCARDTYWEGYFDLWGQGTLVTVSS VL: EIVLTQSPGTLSLSPGERATLSCRASQGISNYLAWYQQKPGQAPRLLIYDASNLESGIPDRFSGSGSGTDFTLTISRLEPEDFAVYYCQQYANLPYTFGQGTKVEIK
2		80.3		P015004-vc-PAB-MMAE (antibody, IgG1, V domains shown, maleimidocaproyl-valine-citrulline-p-aminobenzyloxycarbonyl monomethyl auristatin E on cysteine sulfhydryls of reduced disulfides; positions not given; average 3.0 drugs per antibody) VH: EVQLLESGGGLVQPGGSLRLSCAASGFTFSDYAMAWVRQAPGKGLEWVSIIYPGDSETIYSPSFEGRFTISRDNSKNTLYLQMNSLRAEDTAVYYCARDTYWEGYFDLWGQGTLVTVSS VL: EIVLTQSPGTLSLSPGERATLSCRASQGISNYLAWYQQKPGQAPRLLIYDASNLESGIPDRFSGSGSGTDFTLTISRLEPEDFAVYYCQQYANLPYTFGQGTKVEIK
